Experimental data: patent publication US20030004092A1

Target: Myc expressed from a co-transfected Myc expressing plasmid (pSpMyc)
Assay: cell-based or functional assay

Myc-dependent transcriptional activity (pM4luc luciferase reporter, NIH-3T3 cells): 4 fold
Substance: cdr2 expressed from a co-transfected cdr2 expressing plasmid
